The target of the assay is T1, p17 (the fourth subunit of xPol ε complex) (Xenopus, UniProt Q6WSQ3 1-147).
T1 construct: p17 subunit of Xenopus DNA polymerase epsilon, 147 amino acids; also called xPol ε p17; source: sf21 insect cells, baculovirus, co-expressed, in crude extract
T1 sequence (looked up): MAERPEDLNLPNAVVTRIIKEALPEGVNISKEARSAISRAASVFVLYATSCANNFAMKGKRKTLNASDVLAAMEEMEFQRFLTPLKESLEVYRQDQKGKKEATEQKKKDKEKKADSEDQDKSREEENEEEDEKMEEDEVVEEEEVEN
Kind of assay: not stated; data not shown; p12 and p17 in insect cells.

B1: p12 (the third subunit of xPol ε complex) (natural protein, Xenopus, UniProt Q0EAE6 1-116, looked up)
chain: MAAEVAAPESLEGSGSQEDAGPSSPPAAHPAPCPSKQARLPLSRIKALMKADPDLSLASQESVFVISKATELFIETIAKDAYLYAQQGKRKTLQRKDLDNAIDAIDEFAFLEGTLD
notes: p12 subunit of Xenopus DNA polymerase epsilon, 116 amino acids; also called xPol ε p12; source: sf21 insect cells, baculovirus, co-expressed, in crude extract
One may read the stoichiometry N as the number of molecules, sites or subunits per partner or assembly. B1: the “stoichiometry N” value came out at 1.

Source of the values: paper PMC1560149, “The DNA polymerase activity of Pol ε holoenzyme is required for rapid and efficient chromosomal DNA replication in Xenopus egg extracts” (BMC Biochemistry, 2006).
